Assay: Saturation mutagenesis of SEQ ID NO:109: dicamba decarboxylation activity of point mutants (carbon dioxide released)
[1] = dicamba decarboxylation activity of point mutants of SEQ ID NO: 109, relative to unchanged template
[2] = point mutation in SEQ ID NO: 109

Row | Molecule | Average Activity (Fold of SEQ ID NO: 109) [1] | Average Activity (Fold of SEQ ID NO: 109) [2]
1 | D299A: point mutant of SEQ ID NO: 109 (protein, Dicamba decarboxylase variant clone: DC.4.032) MAQGKVALEEHFAIPETLQDSAGFVPGDYWKELQHRLLDIQDTRLKLMDAHGIETMILSLNAPAVQAIPDRRKAIEIARRANDVLAEECAKRPDRFLAFAALPLQDPDAATEELQRCVNDLGFVGALVNGFSQEGDGQTPLYYDLPQYRPFWGEVEKLDVPFYLHPRNPLPQDSRIYDGHPWLLGPTWAFAQETAVHALRLMASGLFDEHPRLNIILGHMGEGLPYMMWRIDHRVAWVKLPPRYPAKRRFMDYFNENFHITTSGNFRTQTLIDAILEIGADRILFSTDWPFENIDHASAWFNATSIAEADRVKIGRTNARRLFKLDGA | 2.0 Fold of SEQ ID NO: 109 | –
2 | A328R: point mutant of SEQ ID NO: 109 (protein, Dicamba decarboxylase variant clone: DC.4.032) MAQGKVALEEHFAIPETLQDSAGFVPGDYWKELQHRLLDIQDTRLKLMDAHGIETMILSLNAPAVQAIPDRRKAIEIARRANDVLAEECAKRPDRFLAFAALPLQDPDAATEELQRCVNDLGFVGALVNGFSQEGDGQTPLYYDLPQYRPFWGEVEKLDVPFYLHPRNPLPQDSRIYDGHPWLLGPTWAFAQETAVHALRLMASGLFDEHPRLNIILGHMGEGLPYMMWRIDHRVAWVKLPPRYPAKRRFMDYFNENFHITTSGNFRTQTLIDAILEIGADRILFSTDWPFENIDHASDWFNATSIAEADRVKIGRTNARRLFKLDGR | 3.0 Fold of SEQ ID NO: 109 | –
3 | G327Q: point mutant of SEQ ID NO: 109 (protein, Dicamba decarboxylase variant clone: DC.4.032) MAQGKVALEEHFAIPETLQDSAGFVPGDYWKELQHRLLDIQDTRLKLMDAHGIETMILSLNAPAVQAIPDRRKAIEIARRANDVLAEECAKRPDRFLAFAALPLQDPDAATEELQRCVNDLGFVGALVNGFSQEGDGQTPLYYDLPQYRPFWGEVEKLDVPFYLHPRNPLPQDSRIYDGHPWLLGPTWAFAQETAVHALRLMASGLFDEHPRLNIILGHMGEGLPYMMWRIDHRVAWVKLPPRYPAKRRFMDYFNENFHITTSGNFRTQTLIDAILEIGADRILFSTDWPFENIDHASDWFNATSIAEADRVKIGRTNARRLFKLDQA | 2.8 Fold of SEQ ID NO: 109 | 2.8 Fold of SEQ ID NO: 109
4 | A303E: point mutant of SEQ ID NO: 109 (protein, Dicamba decarboxylase variant clone: DC.4.032) MAQGKVALEEHFAIPETLQDSAGFVPGDYWKELQHRLLDIQDTRLKLMDAHGIETMILSLNAPAVQAIPDRRKAIEIARRANDVLAEECAKRPDRFLAFAALPLQDPDAATEELQRCVNDLGFVGALVNGFSQEGDGQTPLYYDLPQYRPFWGEVEKLDVPFYLHPRNPLPQDSRIYDGHPWLLGPTWAFAQETAVHALRLMASGLFDEHPRLNIILGHMGEGLPYMMWRIDHRVAWVKLPPRYPAKRRFMDYFNENFHITTSGNFRTQTLIDAILEIGADRILFSTDWPFENIDHASDWFNETSIAEADRVKIGRTNARRLFKLDGA | 2.3 Fold of SEQ ID NO: 109 | –
5 | D20F: point mutant of SEQ ID NO: 109 (protein, Dicamba decarboxylase variant clone: DC.4.032) MAQGKVALEEHFAIPETLQFSAGFVPGDYWKELQHRLLDIQDTRLKLMDAHGIETMILSLNAPAVQAIPDRRKAIEIARRANDVLAEECAKRPDRFLAFAALPLQDPDAATEELQRCVNDLGFVGALVNGFSQEGDGQTPLYYDLPQYRPFWGEVEKLDVPFYLHPRNPLPQDSRIYDGHPWLLGPTWAFAQETAVHALRLMASGLFDEHPRLNIILGHMGEGLPYMMWRIDHRVAWVKLPPRYPAKRRFMDYFNENFHITTSGNFRTQTLIDAILEIGADRILFSTDWPFENIDHASDWFNATSIAEADRVKIGRTNARRLFKLDGA | 1.9 Fold of SEQ ID NO: 109 | 1.9 Fold of SEQ ID NO: 109
6 | A328D: point mutant of SEQ ID NO: 109 (protein, Dicamba decarboxylase variant clone: DC.4.032) MAQGKVALEEHFAIPETLQDSAGFVPGDYWKELQHRLLDIQDTRLKLMDAHGIETMILSLNAPAVQAIPDRRKAIEIARRANDVLAEECAKRPDRFLAFAALPLQDPDAATEELQRCVNDLGFVGALVNGFSQEGDGQTPLYYDLPQYRPFWGEVEKLDVPFYLHPRNPLPQDSRIYDGHPWLLGPTWAFAQETAVHALRLMASGLFDEHPRLNIILGHMGEGLPYMMWRIDHRVAWVKLPPRYPAKRRFMDYFNENFHITTSGNFRTQTLIDAILEIGADRILFSTDWPFENIDHASDWFNATSIAEADRVKIGRTNARRLFKLDGD | 2.3 Fold of SEQ ID NO: 109 | 2.3 Fold of SEQ ID NO: 109
7 | G27T: point mutant of SEQ ID NO: 109 (protein, Dicamba decarboxylase variant clone: DC.4.032) MAQGKVALEEHFAIPETLQDSAGFVPTDYWKELQHRLLDIQDTRLKLMDAHGIETMILSLNAPAVQAIPDRRKAIEIARRANDVLAEECAKRPDRFLAFAALPLQDPDAATEELQRCVNDLGFVGALVNGFSQEGDGQTPLYYDLPQYRPFWGEVEKLDVPFYLHPRNPLPQDSRIYDGHPWLLGPTWAFAQETAVHALRLMASGLFDEHPRLNIILGHMGEGLPYMMWRIDHRVAWVKLPPRYPAKRRFMDYFNENFHITTSGNFRTQTLIDAILEIGADRILFSTDWPFENIDHASDWFNATSIAEADRVKIGRTNARRLFKLDGA | 2.0 Fold of SEQ ID NO: 109 | –
8 | R321N: point mutant of SEQ ID NO: 109 (protein, Dicamba decarboxylase variant clone: DC.4.032) MAQGKVALEEHFAIPETLQDSAGFVPGDYWKELQHRLLDIQDTRLKLMDAHGIETMILSLNAPAVQAIPDRRKAIEIARRANDVLAEECAKRPDRFLAFAALPLQDPDAATEELQRCVNDLGFVGALVNGFSQEGDGQTPLYYDLPQYRPFWGEVEKLDVPFYLHPRNPLPQDSRIYDGHPWLLGPTWAFAQETAVHALRLMASGLFDEHPRLNIILGHMGEGLPYMMWRIDHRVAWVKLPPRYPAKRRFMDYFNENFHITTSGNFRTQTLIDAILEIGADRILFSTDWPFENIDHASDWFNATSIAEADRVKIGRTNARNLFKLDGA | 1.7 Fold of SEQ ID NO: 109 | 1.7 Fold of SEQ ID NO: 109
9 | G27S: point mutant of SEQ ID NO: 109 (protein, Dicamba decarboxylase variant clone: DC.4.032) MAQGKVALEEHFAIPETLQDSAGFVPSDYWKELQHRLLDIQDTRLKLMDAHGIETMILSLNAPAVQAIPDRRKAIEIARRANDVLAEECAKRPDRFLAFAALPLQDPDAATEELQRCVNDLGFVGALVNGFSQEGDGQTPLYYDLPQYRPFWGEVEKLDVPFYLHPRNPLPQDSRIYDGHPWLLGPTWAFAQETAVHALRLMASGLFDEHPRLNIILGHMGEGLPYMMWRIDHRVAWVKLPPRYPAKRRFMDYFNENFHITTSGNFRTQTLIDAILEIGADRILFSTDWPFENIDHASDWFNATSIAEADRVKIGRTNARRLFKLDGA | 2.2 Fold of SEQ ID NO: 109 | 2.2 Fold of SEQ ID NO: 109
10 | W30L: point mutant of SEQ ID NO: 109 (protein, Dicamba decarboxylase variant clone: DC.4.032) MAQGKVALEEHFAIPETLQDSAGFVPGDYLKELQHRLLDIQDTRLKLMDAHGIETMILSLNAPAVQAIPDRRKAIEIARRANDVLAEECAKRPDRFLAFAALPLQDPDAATEELQRCVNDLGFVGALVNGFSQEGDGQTPLYYDLPQYRPFWGEVEKLDVPFYLHPRNPLPQDSRIYDGHPWLLGPTWAFAQETAVHALRLMASGLFDEHPRLNIILGHMGEGLPYMMWRIDHRVAWVKLPPRYPAKRRFMDYFNENFHITTSGNFRTQTLIDAILEIGADRILFSTDWPFENIDHASDWFNATSIAEADRVKIGRTNARRLFKLDGA | 1.7 Fold of SEQ ID NO: 109 | 1.7 Fold of SEQ ID NO: 109
11 | G27A: point mutant of SEQ ID NO: 109 (protein, Dicamba decarboxylase variant clone: DC.4.032) MAQGKVALEEHFAIPETLQDSAGFVPADYWKELQHRLLDIQDTRLKLMDAHGIETMILSLNAPAVQAIPDRRKAIEIARRANDVLAEECAKRPDRFLAFAALPLQDPDAATEELQRCVNDLGFVGALVNGFSQEGDGQTPLYYDLPQYRPFWGEVEKLDVPFYLHPRNPLPQDSRIYDGHPWLLGPTWAFAQETAVHALRLMASGLFDEHPRLNIILGHMGEGLPYMMWRIDHRVAWVKLPPRYPAKRRFMDYFNENFHITTSGNFRTQTLIDAILEIGADRILFSTDWPFENIDHASDWFNATSIAEADRVKIGRTNARRLFKLDGA | 2.0 Fold of SEQ ID NO: 109 | –
12 | N302A: point mutant of SEQ ID NO: 109 (protein, Dicamba decarboxylase variant clone: DC.4.032) MAQGKVALEEHFAIPETLQDSAGFVPGDYWKELQHRLLDIQDTRLKLMDAHGIETMILSLNAPAVQAIPDRRKAIEIARRANDVLAEECAKRPDRFLAFAALPLQDPDAATEELQRCVNDLGFVGALVNGFSQEGDGQTPLYYDLPQYRPFWGEVEKLDVPFYLHPRNPLPQDSRIYDGHPWLLGPTWAFAQETAVHALRLMASGLFDEHPRLNIILGHMGEGLPYMMWRIDHRVAWVKLPPRYPAKRRFMDYFNENFHITTSGNFRTQTLIDAILEIGADRILFSTDWPFENIDHASDWFAATSIAEADRVKIGRTNARRLFKLDGA | 1.9 Fold of SEQ ID NO: 109 | 1.9 Fold of SEQ ID NO: 109
